Experimental findings from US6958236B2, “Control of gene expression in plants” (priority 2000, dated 2005) are described below.

The subject of the experiment is pCGS154 reporter. Put plainly: Transient transfection of S2 Drosophila cells with luciferase reporter and EcR receptor plasmids. The class given is cell-based. Conditions: for Assay # 1 Fold Activation With Chemistry / Assay # 2 Fold Activation With Chemistry: Example 6, 0.2 μM tebufenozide vs without chemistry, normalized to pCGS154 reporter without receptor; for No Chemistry (luciferase activity as ratio to pCGS154 reporter without chemistry): reporter CGS154, no chemical ligand. As for the experimental part:
An in vivo cell based assay is designed to measure transcriptional activation by the receptors of a reporter plasmid. S2 Drosophila cells (ATCC CRL-1963) are transiently transfected with luciferase reporter and receptor expression plasmids using the calcium phosphate precipitation procedure (Di Nocera and David (1983) PNAS 80, 7095-7098). S2 cells are plated in 96 well format at a density of 2×10^5 in 166.6 μl of Schneider's Drosophila media supplemented with antibiotics and 10% heat inactivated fetal bovine serum (GIBO-BRL). The following day, 33.4 μl of a calcium phosphate precipitate containing 3-6 ng of pCGS154 reporter plasmid, 3-6 ng of EcR receptor plasmid along with salmon sperm DNA to a total of 400 ng DNA per well is added. Chemical ligands are added 16-24 hours after DNA addition to the cells. Cells are then harvested and extracted 24 hours after chemistry addition following the procedures for the luciferase assay by centrifuging and resuspending the cell pellets in 100 μl of cell culture lysis reagent (Promega). Luciferase activity is quantitated using chemiluminescence (Promega) using an analytical luminescence model 2001 luminometer.
S2 cells contain Drosophila EcR and USP. The endogenous USP can be used as the heterodimerization partner for EcR or exogenous USP expression plasmid can be added to the assay.
To compare the activities of Manduca and Drosophila EcR, S2 cells are transiently transfected using the above procedure with the reporter plasmid pCGS 154 and either full-length Drosophila EcR, DDV, full-length Manduca EcR, or MMV. Tebufenozide at 0.2 µM and 2 μM is used as the chemical ligand. Luciferase assays are performed as described above. All of the results are normalized as a ratio of activity to the light unit value for the pCGS154 reporter without chemistry.
The activities of the EcR-VP16 chimeras are compared by transiently transfecting S2 cells as described in Example 3. Tebufenozide is added to the cells at 0.2 μM concentration. Results are expressed as fold activation, a ratio of the activity of the constructs with chemistry added as compared to activity of the constructs without chemistry. All results are normalized to the luciferase activity of the pCGS154 reporter without receptor addition.
The activities of the EcR-VP16 chimeras are compared by transiently transfecting S2 cells as in Example 3. Tebufenozide is added to the cells at 0.2 μM concentration. Results are expressed as fold activation of constructs with chemistry as compared to without chemistry. All results are normalized to the luciferase activity of the pCGS154 reporter without receptor.
The activities of the EcR-VP16 chimeras are compared by transiently transfecting S2 cells as in Example 3. Tebufenozide is added to the cells at 0.2 μM concentration. Results are expressed as fold activation of constructs with chemistry as compared to without chemistry addition. All results are normalized to the luciferase activity of the pCGS154 reporter without receptor.
(In general: Reporter assays use an easily measured gene product as a stand-in for the process of interest.)

B1: LMV: EcR chimera: Locusta migratoria C+D domains, Manduca sexta E domain, VP16; SEQ ID NO:83-84 (protein)
chain: MGREDLSPLSSLNGYSADSCDAKKKKGAAPRQQEELCLVCGDRASGYHYNALTCEGCKGFFRRSITKNAVYQCKYGNNCEIDMYMRRKCQECRLKKCLTVGMRPECVVPEYQCAVKRKEKKAQKDKDKPNSTTNGSPEVMMLKDIDAKVEPERPLSNGIKPVSPEQEELIHRLVWYQEGYEQPSEEDLKRVTQTWQLEEEEEEETDMPFRQITEMTILTVQLIVEFAKGLPGFSKISQSDQITLLKASSSEVMMLRVARRYDAATDSVLFANNQAYTRDNYRKAGMSYVIEDLLHFCRCMYSMSMDNVHYALLTAIVIFSDRPGLEQPLLVEEIQRYYLKTLRVYILNQHSASPRCAVLFGKILGVLTELRTLGTQNSNMCISLKLKNRKLPPFLEEIWDVAEVSTTKLAPPTDVSLGDELHLDGEDVAMAHADALDDFDLDMLGDGDSPGPGFTPHDSAPYGALDMADFEFEQMFTDALGIDEYGG
Consider B1, for which, for the setting “Example 6, third column (LLV, LMV), 0.2 μM tebufenozide”, the “Fold Activation With Chemistry” value amounted to 48.8 fold.

B2: DDV: EcR chimera: Drosophila melanogaster C+D and E domains, VP16; SEQ ID NO:95-96 (protein)
chain: MGRDDLSPSSSLNGYSANESCDAKKSKKGPAPRVQEELCLVCGDRASGYHYNALTCEGCKGFFRRSVTKSAVYCCKFGRACEMDMYMRRKCQECRLKKCLAVGMRPECVVPENQCAMKRREKKAQKEKDKMTTSPSSQHGGNGSLASGGGQDFVKKEILDLMTCEPPQHATIPLLPDEILAKCQARNIPSLTYNQLAVIYKLIWYQDGYEQPSEEDLRRIMSQPDENESQTDVSFRHITEITILTVQLIVEFAKGLPAFTKIPQEDQITLLKACSSEVMMLRMARRYDHSSDSIFFANNRSYTRDSYKMAGMADNIEDLLHFCRQMFSMKVDNVEYALLTAIVIFSDRPGLEKAQLVEAIQSYYIDTLRIYILNRHCGDSMSLVFYAKLLSILTELRTLGNQNAEMCFSLKLKNRKLPKFLEEIWDVHAIPPKLAPPTDVSLGDELHLDGEDVAMAHADALDDFDLDMLGDGDSPGPGFTPHDSAPYGALDMADFEFEQMFTDALGIDEYGG
B2: the “Assay # 1 Fold Activation With Chemistry” value is 1.01 fold, the “Assay # 2 Fold Activation With Chemistry” value worked out at 0.68 fold and the “No Chemistry (luciferase activity as ratio to pCGS154 reporter without chemistry)” value came out at 1.

B3: DrosFL: full-length Drosophila EcR expression cassette in pPacU (protein, UniProt P34021 1-878, looked up)
chain: MKRRWSNNGGFMRLPEESSSEVTSSSNGLVLPSGVNMSPSSLDSHDYCDQDLWLCGNESGSFGGSNGHGLSQQQQSVITLAMHGCSSTLPAQTTIIPINGNANGNGGSTNGQYVPGATNLGALANGMLNGGFNGMQQQIQNGHGLINSTTPSTPTTPLHLQQNLGGAGGGGIGGMGILHHANGTPNGLIGVVGGGGGVGLGVGGGGVGGLGMQHTPRSDSVNSISSGRDDLSPSSSLNGYSANESCDAKKSKKGPAPRVQEELCLVCGDRASGYHYNALTCEGCKGFFRRSVTKSAVYCCKFGRACEMDMYMRRKCQECRLKKCLAVGMRPECVVPENQCAMKRREKKAQKEKDKMTTSPSSQHGGNGSLASGGGQDFVKKEILDLMTCEPPQHATIPLLPDEILAKCQARNIPSLTYNQLAVIYKLIWYQDGYEQPSEEDLRRIMSQPDENESQTDVSFRHITEITILTVQLIVEFAKGLPAFTKIPQEDQITLLKACSSEVMMLRMARRYDHSSDSIFFANNRSYTRDSYKMAGMADNIEDLLHFCRQMFSMKVDNVEYALLTAIVIFSDRPGLEKAQLVEAIQSYYIDTLRIYILNRHCGDSMSLVFYAKLLSILTELRTLGNQNAEMCFSLKLKNRKLPKFLEEIWDVHAIPPSVQSHLQITQEENERLERAERMRASVGGAITAGIDCDSASTSAAAAAAQHQPQPQPQPQPSSLTQNDSQHQTQPQLQPQLPPQLQGQLQPQLQPQLQTQLQPQIQPQPQLLPVSAPVPASVTAPGSLSAVSTSSEYMGGSAAIGPITPATTSSITAAVTASSTTSAVPMGNGVGVGVGVGGNVSMYANAQTAMALMGVALHSHQEQLIGGVAVKSEHSTTA
modifications: full-length
notes: full-length Drosophila EcR expression cassette in pPacU
Turning to B3, the “No Chemistry (luciferase activity as ratio to pCGS154 reporter without chemistry)” value was determined as 1.

B4: MaFL: full-length Manduca EcR expression cassette in pPacU (protein, UniProt P49883 1-556, looked up)
chain: MRRRWSNNGCFPLRMFEESSSEVTSSSAFGMPAAMVMSPESLASPEYGGLELWSYDETMTNYPAQSLLGACNAPQQQQQQQQQQPSAQPLPSMPLPMPPTTPKSENESMSSGREELSPASSINGCSTDGEPRRQKKGPAPRQQEELCLVCGDRASGYHYNALTCEGCKGFFRRSVTKNAVYICKFGHACEMDMYMRRKCQECRLKKCLAVGMRPECVVPESTCKNKRREKEAQREKDKLPVSTTTVDDHMPAIMQCDPPPPEAARIHEVVPRFLTEKLMEQNRLKNVTPLSANQKSLIARLVWYQEGYEQPSEEDLKRVTQTWQLEEEEEEETDMPFRQITEMTILTVQLIVEFAKGLPGFSKISQSDQITLLKASSSEVMMLRVARRYDAATDSVLFANNQAYTRDNYRKAGMSYVIEDLLHFCRCMYSMSMDNVHYALLTAIVIFSDRPGLEQPLLVEEIQRYYLKTLRVYILNQHSASPRCAVLFGKILGVLTELRTLGTQNSNMCISLKLKNRKLPPFLEEIWDVAEVSTTQPTPGVAAQVTPIVVDNPAAL
modifications: full-length
notes: full-length Manduca EcR expression cassette in pPacU
On to B4, for which the “No Chemistry (luciferase activity as ratio to pCGS154 reporter without chemistry)” value was determined as 1.

B5: MMV: EcR chimera: Manduca sexta C+D and E domains, VP16; SEQ ID NO:93-94 (protein)
chain: MGREELSPASSINGCSTDGEPRRQKKGPAPRQQEELCLVCGDRASGYHYNALTCEGCKGFFRRSVTKNAVYICKFGHACEMDMYMRRKCQECRLKKCLAVGMRPECVVPESTCKNKRREKEAQREKDKLPVSTTTVDDHMPAIMQCDPPPPEAARIHEVVPRFLTEKLMEQNRLKNVTPLSANQKSLIARLVWYQEGYEQPSEEDLKRVTQTWQLEEEEEEETDMPFRQITEMTILTVQLIVEFAKGLPGFSKISQSDQITLLKASSSEVMMLRVARRYDAATDSVLFANNQAYTRDNYRKAGMSYVIEDLLHFCRCMYSMSMDNVHYALLTAIVIFSDRPGLEQPLLVEEIQRYYLKTLRVYILNQHSASPRCAVLFGKILGVLTELRTLGTQNSNMCISLKLKNRKLPPFLEEIWDVAEVSTTKLAPPTDVSLGDELHLDGEDVAMAHADALDDFDLDMLGDGDSPGPGFTPHDSAPYGALDMADFEFEQMFTDALGIDEYGG
With B5, the “Assay # 1 Fold Activation With Chemistry” value came to 87.65 fold, the “Assay # 2 Fold Activation With Chemistry” value is on record as 151.06 fold and the “No Chemistry (luciferase activity as ratio to pCGS154 reporter without chemistry)” value is 1. Where the note is “Example 7, 0.2 μM tebufenozide”, the “Fold Activation With Chemistry Assay #1” value is reported as 719.2 fold and the “Fold Activation With Chemistry Assay #2” value stood at 595.1 fold.

B6: DMV: EcR chimera: Drosophila melanogaster C+D domains, Manduca sexta E domain, VP16; SEQ ID NO:71-72 (protein)
chain: MGRDDLSPSSSLNGYSANESCDAKKSKKGPAPRVQEELCLVCGDRASGYHYNALTCEGCKGFFRRSVTKSAVYCCKFGRACEMDMYMRRKCQECRLKKCLAVGMRPECVVPENQCAMKRREKKAQKEKDKMTTSPSSQHGGNGSLASGGGQDFVKKEILDLMTCEPPQHATIPLLPDEILAKCQARNIPSLTYNQLAVIYKLIWYQEGYEQPSEEDLKRVTQTWQLEEEEEEETDMPFRQITEMTILTVQLIVEFAKGLPGFSKISQSDQITLLKASSSEVMMLRVARRYDAATDSVLFANNQAYTRDNYRKAGMSYVIEDLLHFCRCMYSMSMDNVHYALLTAIVIFSDRPGLEQPLLVEEIQRYYLKTLRVYILNQHSASPRCAVLFGKILGVLTELRTLGTQNSNMCISLKLKNRKLPPFLEEIWDVAEVSTTKLAPPTDVSLGDELHLDGEDVAMAHADALDDFDLDMLGDGDSPGPGFTPHDSAPYGALDMADFEFEQMFTDALGIDEYGG
For the molecule B6, the “Assay # 1 Fold Activation With Chemistry” value was 8.67 fold and the “Assay # 2 Fold Activation With Chemistry” value is 3.72 fold.
